Measured values taken from US20110143953A1 (ARIZONA BOARD OF REGENTS A BODY CORPORATE OF THE STATE OF …, published 2011).
Values belong to the binder of their own block, whether it stands above or below them.

Tests used:
Gal80 [1] = target: T1, Gal80 (UniProt P04387 1-435, limits assumed, labelled with Cy3 or Cy5 in the peptide array screen); test: SPR, gal80 immobilised on the chip, Kd from on and off rates
T1 sequence (looked up): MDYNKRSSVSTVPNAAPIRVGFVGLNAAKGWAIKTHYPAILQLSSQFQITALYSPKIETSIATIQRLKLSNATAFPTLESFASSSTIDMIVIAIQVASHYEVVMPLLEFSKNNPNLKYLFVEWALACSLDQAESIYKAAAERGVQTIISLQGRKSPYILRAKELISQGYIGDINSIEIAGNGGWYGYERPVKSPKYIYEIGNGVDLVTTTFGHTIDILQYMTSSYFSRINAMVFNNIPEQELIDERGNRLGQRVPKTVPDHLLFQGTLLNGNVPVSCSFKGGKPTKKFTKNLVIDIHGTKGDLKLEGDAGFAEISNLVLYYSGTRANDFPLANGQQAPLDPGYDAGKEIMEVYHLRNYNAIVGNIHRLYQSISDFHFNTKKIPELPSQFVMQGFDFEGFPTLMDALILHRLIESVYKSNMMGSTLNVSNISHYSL

transferrin = target: T2, transferrin (UniProt P02787 20-698, randomly labelled at free amines with Alexa 555 in the peptide array screen; amine-coupled to the chip in SPR); test: SPR (Biacore T100), transferrin immobilized, steady-state response
T2 construct: also called TRF
Description: Flow rates and contact times are adjusted as necessary to provide the surface concentration of target desired for the intended application, and may vary by target. In general, for evaluating whether binding occurs, it is preferable to immobilize a relatively large quantity of target, and higher flow rates and/or longer contact times may be used. For determining kinetics, it is preferable to limit the amount of target immobilized so as to minimize rebinding and avidity effects, and lower flow rates and/or contact times may be used.
Candidate affinity elements for the transferrin synbody TRF19, TRF21, TRF23, TRF24, TRF25, and TRF26 were individually evaluated for solution phase KD with respect to transferrin by SPR analysis. […] For each experiment, response data were processed using a reference surface to correct for bulk refractive index changes and any non-specific binding. Data were also double referenced using responses from blank running buffer injections.

Gal80 [2] = target: T1, Gal80; test: SPR, synbody in solution (1 µM to 7.81 nM) on surface-bound Gal80; SPR, synbody in solution, surface-bound Gal80
Gal80 [3] = target: T1, Gal80; test: gel shift assay; gel shift assay

T2 sequence (P02787 20-698 limits assumed): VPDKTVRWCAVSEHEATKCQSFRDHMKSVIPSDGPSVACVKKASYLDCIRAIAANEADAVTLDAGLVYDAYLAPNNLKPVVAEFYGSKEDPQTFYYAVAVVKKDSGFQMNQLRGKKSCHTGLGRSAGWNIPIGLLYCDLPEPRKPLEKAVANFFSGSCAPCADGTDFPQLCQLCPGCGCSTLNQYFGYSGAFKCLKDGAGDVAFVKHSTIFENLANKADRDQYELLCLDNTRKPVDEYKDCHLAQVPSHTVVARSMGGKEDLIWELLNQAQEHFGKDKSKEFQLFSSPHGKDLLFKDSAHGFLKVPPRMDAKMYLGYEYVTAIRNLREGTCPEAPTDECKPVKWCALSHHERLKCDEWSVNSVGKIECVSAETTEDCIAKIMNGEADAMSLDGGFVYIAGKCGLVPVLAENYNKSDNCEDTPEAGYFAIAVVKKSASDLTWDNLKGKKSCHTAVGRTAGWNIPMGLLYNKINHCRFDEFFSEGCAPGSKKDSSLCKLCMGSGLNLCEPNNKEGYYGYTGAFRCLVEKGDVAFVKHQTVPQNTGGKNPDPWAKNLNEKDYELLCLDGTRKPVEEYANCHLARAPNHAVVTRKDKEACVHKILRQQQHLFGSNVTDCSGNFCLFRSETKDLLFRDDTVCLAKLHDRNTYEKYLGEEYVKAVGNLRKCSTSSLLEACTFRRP

B1: BP1 on dsDNA (peptide)
peptide: GTEKGTSGWLKTGSC
modifications: chain 1 pos 15: Cys thiol joined via SMCC maleimide to an amine-modified cytosine of the double-stranded DNA linker. The DNA cannot be carried by the letters.
notes: also called BP1 complexed by itself to the double-stranded DNA linker
Kd (Gal80 [1]): 0.482 µM

Binder: FRGWAHIFFGPHVIYRGGSC (20-mer random peptide) [TRF23]
Kd (transferrin): ~50 µM

Binder: SVKPWRPLLTGNRWLNSGSC [TRF24]
Kd (transferrin): ~50 µM

B2: TRF19 (peptide)
peptide: KEDNPGYSSEQDYNKLDGSC
notes: 20-mer random peptide; on the array it is attached by its C-terminal cysteine to the surface
Kd (transferrin): ~150 µM

B3: BP2 on dsDNA (peptide)
peptide: EGEWTEGKLSLRGSC
modifications: chain 1 pos 15: Cys thiol joined via SMCC maleimide to an amine-modified cytosine of the double-stranded DNA linker. The DNA cannot be carried by the letters.
notes: also called BP2 complexed by itself to the double-stranded DNA linker
Kd (Gal80 [1]): 0.982 µM

Binder: QYHHFMNLKRQGRAQAYGSC (20-mer random peptide) [TRF21]
Kd (transferrin): ~60 µM

Continued, values first:

Kd (transferrin): ~100 µM
Binder: AHKVVPQRQIRHAYNRYGSC (20-mer random peptide) [TRF26]

Kd (transferrin): ~60 µM
Binder: APYAPQQIHYWSTLGFKGSC (20-mer random peptide) [TRF25]

Kd (Gal80 [2]): 0.091 µM
Kd (Gal80 [3]): ~0.1 µM
B4: linker-optimized BP1/BP2 DNA-linked synbody (BP1 on the template strand, BP2 at position 13 from the 3' end of the variable strand) (designed binder)
peptide 1: GTEKGTSGWLKTGSC
peptide 2: EGEWTEGKLSLRGSC
modifications: not fully specified; C-terminal cysteine conjugated through SMCC to the amine-modified cytosine at position 13 from the 3' end of the DNA variable strand (SEQ ID NO: 15); C-terminal cysteine conjugated through SMCC to the amine-modified 5' terminal cytosine of the DNA template strand (SEQ ID NO: 14)
notes: The two peptides are held about 5 nm apart by a double-stranded DNA linker; also called Gal80 synbody; gal80 synbody
